Article doi:10.64898/2025.12.30.697126

Molecular target: SUMO-SRCAP_(521-569) (human)
Assay: ITC

SUMO-SRCAP_(521-569) (human), sequence (Q6ZRS2 521-569): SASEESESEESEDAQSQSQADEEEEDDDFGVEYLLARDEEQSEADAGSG

Substance “H2A.Z/H2B dimer, wild type (from UniProt P0C0S5 1-128; P06899 1-126) (complex)” has a Kd of 0.256 µM.
